Data from patent publication US20100196266A1.

Key:
[1] = molecular target: antigen recognised by L243 on canine lymphocytes and canine lymphoma cells (HLA-DR of the dog) (dog); experiment: flow cytometry, dog lymphoma aspirate; none 3.85
[2] = molecular target: antigen recognised by L243 on canine lymphocytes and canine lymphoma cells (HLA-DR of the dog) (dog); experiment: flow cytometry, canine lymphoma aspirate 150836; none 3.9
[3] = molecular target: antigen recognised by L243 on canine lymphocytes and canine lymphoma cells (HLA-DR of the dog) (dog); experiment: flow cytometry, canine lymphoma aspirate 150836; none 3.4
[4] = molecular target: antigen recognised by L243 on canine lymphocytes and canine lymphoma cells (HLA-DR of the dog) (dog); experiment: flow cytometry, dog lymphoma aspirate; none 3.37
[5] = molecular target: human leukocyte antigen-DR (HLA-DR) on human lymphoma and leukemia cell lines and human lymphocytes (human); experiment: indirect flow cytometry, Namalwa cells, FITC-GAM; none 2.91; control antibody
[6] = molecular target: human leukocyte antigen-DR (HLA-DR) on human lymphoma and leukemia cell lines and human lymphocytes (human); experiment: indirect flow cytometry, Namalwa cells, FITC-GAH; none 2.52; control antibody
[7] = molecular target: antigen recognised by L243 on canine lymphocytes and canine lymphoma cells (HLA-DR of the dog) (dog); experiment: flow cytometry, dog lymphoma aspirate; none 4.48; control antibody
[8] = molecular target: human leukocyte antigen-DR (HLA-DR) on human lymphoma and leukemia cell lines and human lymphocytes (human); experiment: indirect flow cytometry, FITC-GAH Fc, Namalwa cells; none 2.6; negative control
[9] = molecular target: human leukocyte antigen-DR (HLA-DR) on human lymphoma and leukemia cell lines and human lymphocytes (human); experiment: indirect FACS, FITC-GAH Fc, WSU-FSCCL cells; none 2.6; control antibody
[10] = molecular target: human leukocyte antigen-DR (HLA-DR) on human lymphoma and leukemia cell lines and human lymphocytes (human); experiment: indirect flow cytometry, FITC-GAH Fc, RL cells; none 2.4; negative control
[11] = molecular target: human leukocyte antigen-DR (HLA-DR) on human lymphoma and leukemia cell lines and human lymphocytes (human); experiment: indirect flow cytometry, FITC-GAH Fc, Raji cells; none 6.9; negative control
[12] = molecular target: human leukocyte antigen-DR (HLA-DR) on human lymphoma and leukemia cell lines and human lymphocytes (human); experiment: indirect FACS, FITC-GAH Fc, Raji cells; none 6.8; control antibody
[13] = molecular target: human leukocyte antigen-DR (HLA-DR) on human lymphoma and leukemia cell lines and human lymphocytes (human); experiment: indirect FACS, FITC-GAH Fc, Ramos cells; none 3.1; control antibody
[14] = molecular target: antigen recognised by L243 on canine lymphocytes and canine lymphoma cells (HLA-DR of the dog) (dog); experiment: flow cytometry, dog lymphoma aspirate; none 3.24; control antibody
[15] = molecular target: antigen recognised by L243 on canine lymphocytes and canine lymphoma cells (HLA-DR of the dog) (dog); experiment: flow cytometry, canine lymphoma aspirate 150836; none 3.2; control antibody
[16] = molecular target: human leukocyte antigen-DR (HLA-DR) on human lymphoma and leukemia cell lines and human lymphocytes (human); experiment: indirect flow cytometry, FITC-GAH Fc, SU-DHL-6 cells; none 4.6; negative control
[17] = molecular target: human leukocyte antigen-DR (HLA-DR) on human lymphoma and leukemia cell lines and human lymphocytes (human); experiment: indirect flow cytometry, FITC-GAH Fc, Ramos cells; none 3.1; negative control
[18] = molecular target: human leukocyte antigen-DR (HLA-DR) on human lymphoma and leukemia cell lines and human lymphocytes (human); experiment: indirect FACS, FITC-GAH Fc, Daudi cells; none 3.1; control antibody
[19] = molecular target: human leukocyte antigen-DR (HLA-DR) on human lymphoma and leukemia cell lines and human lymphocytes (human); experiment: indirect FACS, FITC-GAH Fc, SU-DHL-6 cells; none 4.6; control antibody
[20] = molecular target: human leukocyte antigen-DR (HLA-DR) on human lymphoma and leukemia cell lines and human lymphocytes (human); experiment: indirect flow cytometry, FITC-GAH Fc, WSU-FSCCL cells; none 2.7; negative control
[21] = molecular target: human leukocyte antigen-DR (HLA-DR) on human lymphoma and leukemia cell lines and human lymphocytes (human); experiment: indirect flow cytometry, FITC-GAH Fc, Daudi cells; none 3.2; negative control
[22] = molecular target: antigen recognised by L243 on canine lymphocytes and canine lymphoma cells (HLA-DR of the dog) (dog); experiment: flow cytometry, canine lymphoma aspirate 150836; none 4.5; control antibody
[23] = molecular target: human leukocyte antigen-DR (HLA-DR) on human lymphoma and leukemia cell lines and human lymphocytes (human); experiment: indirect FACS, FITC-GAH Fc, Namalwa cells; none 2.5; control antibody
[24] = molecular target: antigen recognised by L243 on canine lymphocytes and canine lymphoma cells (HLA-DR of the dog) (dog); experiment: flow cytometry, canine lymphoma aspirate 150836; none 3.2
[25] = molecular target: antigen recognised by L243 on canine lymphocytes and canine lymphoma cells (HLA-DR of the dog) (dog); experiment: flow cytometry, canine lymphoma aspirate 150836; none 4.5
[26] = molecular target: antigen recognised by L243 on canine lymphocytes and canine lymphoma cells (HLA-DR of the dog) (dog); experiment: flow cytometry, dog lymphoma aspirate; none 3.24
[27] = molecular target: antigen recognised by L243 on canine lymphocytes and canine lymphoma cells (HLA-DR of the dog) (dog); experiment: flow cytometry, dog lymphoma aspirate; none 4.48

B1: murine monoclonal antibody L243 (mL243) (antibody, V domains shown)
VH: QIQLVQSGPELKKPGETVKISCKASGFTFTNYGMNWVKQAPGKGLKWMGWINTYTREPTYADDFKGRFAFSLETSASTAYLQINNLKNEDTAKYFCARDITAVVPTGFDYWGQGTTLTVSS
VL: DIQMTQSPASLSVSVGETVTITCRASENIYSNLAWYRQKQGKSPQLLVFAASNLADGVPSRFSGSGSGTQYSLKINSLQSEDFGDYYCQHFWTTPWAFGGGTNLEIKR
B1 showed a % Positive [1] of 77.8%, a % Positive [2] of 77.8% and a mean FL [3] of 10.4. The mean FL [4] was 10.4.

B2: murine MN-14 (anti-carcinoembryonic antigen) (antibody, from a related filing, V domains shown)
VH: EVKLLESGGGLVQSGGSLKLSCAASGFDFTTYWMSWVRQAPGKGLEWIGEIHPDSSTINYAPSLKDKFIVSRDNAKNTLYLQMSKVRSEDTALYYCASLYFGFPWFAYWGQGTPVTVSA
VL: EIQLTQSHKMMSTSVGDRVSITCKASQDVGTSVAWYQQRPGQSPKLLIYWTSTRHTGVPDRFTGSVSGTDFTLTITNVQSEDLADYFCQQYSLYRSFGGGTKLEIK
In the case of B2, the GEO MEAN Fluorescence [5] is reported as 3.32.

B3: hMN-14, labetuzumab (humanized anti-carcinoembryonic antigen IgG1) (antibody, INN chains, looked up, V domains shown)
VH: EVQLVESGGGVVQPGRSLRLSCSASGFDFTTYWMSWVRQAPGKGLEWIGEIHPDSSTINYAPSLKDRFTISRDNAKNTLFLQMDSLRPEDTGVYFCASLYFGFPWFAYWGQGTPVTVSS
VL: DIQLTQSPSSLSASVGDRVTITCKASQDVGTSVAWYQQKPGKAPKLLIYWTSTRHTGVPSRFSGSGSGTDFTFTISSLQPEDIATYYCQQYSLYRSFGQGTKVEIKR
B3 was tested, and the GEO MEAN Fluorescence [6] was 2.49, the % Positive [7] was 4.63% and the Geometric Mean Fluorescence [8] was 2.4. For the same binder, the Geometric Mean Fluorescence [9] was 2.66, the Geometric Mean Fluorescence [10] was 2.8 and the Geometric Mean Fluorescence [11] was 7. For the same binder, the Geometric Mean Fluorescence [12] was 6.96, the Geometric Mean Fluorescence [13] was 3.13 and the mean FL [14] was 3.24. For the same binder, the mean FL [15] was 3.2, the Geometric Mean Fluorescence [16] was 4.9 and the Geometric Mean Fluorescence [17] was 3.1. For the same binder, the Geometric Mean Fluorescence [18] was 3.16, the Geometric Mean Fluorescence [19] was 4.94 and the Geometric Mean Fluorescence [20] was 2.7. The Geometric Mean Fluorescence [21] was 3.2, the % Positive [22] was 4.6% and the Geometric Mean Fluorescence [23] was 2.36.

B4: hL243γ4P (humanized L243, IgG4/K isotype with hinge mutation Ser241Pro) (antibody, V domains shown)
VH: QVQLQQSGSELKKPGASVKVSCKASGFTFTNYGMNWVKQAPGQGLKWMGWINTYTREPTYADDFKGRFAFSLDTSVSTAYLQISSLKADDTAVYFCARDITAVVPTGFDYWGQGSLVTVSS
VL: DIQLTQSPSSLSASVGDRVTITCRASENIYSNLAWYRQKPGKAPKLLVFAASNLADGVPSRFSGSGSGTDYTFTISSLQPEDIATYYCQHFWTTPWAFGGGTKLQIKR
B4 was tested, and the mean FL [24] was 5.5, the % Positive [25] was 26.2% and the mean FL [26] was 5.47. It also gave a % Positive [27] of 26.3%.
